Experimental findings from PMC3347318 are described below.

This assay concerns the target Sudan virus Boniface (SUDV-Bon) glycoprotein GP1,2, mucin-like domain and transmembrane domain delet (Sudan virus, variant Boniface) (UniProt Q66814). The assay is described as follows: crystal structure.

As to “Sudan virus Boniface (SUDV-Bon) glycoprotein GP1,2, mucin-like domain and transmembrane domain delet (from UniProt Q66814) (complex)”, the stoichiometry N was found to be 3.
